# Laboratory results as given in publication PMC7930613, “Exploring the Potential of Cytochrome P450 CYP109B1 Catalyzed Regio—and Stereoselective Steroid Hydroxylation” (Frontiers in Chemistry, 2021).
# Assays:
# Assay in all cases: HPLC, steroid hydroxylation rate, hyperbolic fit
# Type in all cases: biochemical, Bacillus subtilis
# Settings in all cases: 1 mM NADPH, redox partners Fdr_0978 (4 μM) and Fdx_1499 (20 μM), 2 mM MgCl2, pH 8.0, 30°C
# [1] = tested on: C[C@]12CC[C@H]3[C@@H](CCC4=CC(=O)C=C[C@@]43C)[C@@H]1CC[C@@H]2O
# Description: (§1) HPLC, steroid hydroxylation rate, hyperbolic fit on CYP109B1
# [2] = tested on: T1, [H][C@@]12CC[C@H](O)[C@@]1(C)CCC1=C3CCC(=O)C=C3CC[C@]12[H]
# T1 construct: assayed with separate redox partners Fdr_0978/Fdx_1499
# Description: as §1
# [3] = tested on: T2, C[C@]12CC[C@H]3[C@@H](CCC4=CC(=O)CC[C@@H]43)[C@@H]1CC[C@@H]2O
# T2 construct: assayed with separate redox partners Fdr_0978/Fdx_1499
# Description: as §1
# [4] = tested on: C[C@]12CC[C@H]3[C@@H](CCC4=CC(=O)CC[C@@]43C)[C@@H]1CC[C@@H]2O
# Description: as §1
substance,measurement,setting,value
CYP109B1 (Bacillus subtilis subsp. subtilis str. 168),Km,[1],193.1 ± 38.2 µM
same,kcat,[1],0.0583 ± 0.00333 s⁻¹
same,kcat/Km,[1],300 M⁻¹ s⁻¹
same,Km,[2],163.1 ± 38.4 µM
same,kcat,[2],0.197 ± 0.0117 s⁻¹
same,kcat/Km,[2],1200 M⁻¹ s⁻¹
same,Km,[3],136.3 ± 18.4 µM
same,kcat,[3],0.0717 ± 0.00167 s⁻¹
same,kcat/Km,[3],517 M⁻¹ s⁻¹
same,Km,[4],83.7 ± 20.4 µM
same,kcat,[4],0.0783 ± 0.005 s⁻¹
same,kcat/Km,[4],933 M⁻¹ s⁻¹
